From US20260266848A1, “COMPOSITIONS AND METHODS FOR DIAGNOSING AND TREATING DYSTONIA” (Duke University, priority 2023, published 2026)

B1: Aco1 (protein, UniProt P28271 1-889, looked up)
Cytoplasmic aconitate …: MKNPFAHLAEPLDAAQPGKRFFNLNKLEDSRYGRLPFSIRVLLEAAVRNCDEFLVKKNDIENILNWNVMQHKNIEVPFKPARVILQDFTGVPAVVDFAAMRDAVKKLGGNPEKINPVCPADLVIDHSIQVDFNRRADSLQKNQDLEFERNKERFEFLKWGSQAFCNMRIIPPGSGIIHQVNLEYLARVVFDQDGCYYPDSLVGTDSHTTMIDGLGVLGWGVGGIEAEAVMLGQPISMVLPQVIGYKLMGKPHPLVTSTDIVLTITKHLRQVGVVGKFVEFFGPGVAQLSIADRATIANMCPEYGATAAFFPVDEVSIAYLLQTGREEDKVKHIQKYLQAVGMFRDFNDTSQDPDFTQVVELDLKTVVPCCSGPKRPQDKVAVSEMKKDFESCLGAKQGFKGFQVAPDRHNDRKTFLYSNSEFTLAHGSVVIAAITSCTNTSNPSVMLGAGLLAKKAVEAGLSVKPYIKTSLSPGSGVVTYYLRESGVMPYLSQLGFDVVGYGCMTCIGNSGPLPEPVVEAITQGDLVAVGVLSGNRNFEGRVHPNTRANYLASPPLVIAYAIAGTVRIDFEKEPLGVNAQGRQVFLKDIWPTRDEIQAVERQHVIPGMFKEVYQKIETVNKSWNALAAPSEKLYAWNPKSTYIKSPPFFESLTLDLQPPKSIVDAYVLLNLGDSVTTDHISPAGNIARNSPAARYLTNRGLTPREFNSYGSRRGNDAIMARGTFANIRLLNKFLNKQAPQTVHLPSGETLDVFDAAERYQQAGLPLIVLAGKEYGSGSSRDWAAKGPFLLGIKAVLAESYERIHRSNLVGMGVIPLEYLPGETADSLGLTGRERYTINIPEDLKPRMTVQIKLDTGKTFQAVMRFDTDVELTYFHNGGILNYMIRKMAQ
B2: Ap3d1 (protein, UniProt O54774 2-1199, looked up)
AP-3 complex subunit delta-1: ALKMVKGSIDRMFDKNLQDLVRGIRNHKEDEAKYISQCIDEIKQELKQDNIAVKANAVCKLTYLQMLGYDISWAAFNIIEVMSASKFTFKRVGYLAASQCFHEGTDVIMLTTNQIRKDLSSPSQYDTGVALTGLSCFVTPDLARDLANDIMTLMSHTKPYIRKKAVLIMYKVFLKYPESLRPAFPRLKEKLEDPDPGVQSAAVNVICELARRNPKNYLSLAPLFFKLMTSSTNNWVLIKIIKLFGALTPLEPRLGKKLIEPLTNLIHSTSAMSLLYECVNTVIAVLISLSSGMPNHSASIQLCVQKLRILIEDSDQNLKYLGLLAMSKILKTHPKSVQSHKDLILQCLDDKDESIRLRALDLLYGMVSKKNLMEIVKKLMTHVDKAEGTTYRDELLTKIIDICSQSNYQHITNFEWYISILVELTRLEGTRHGHLIAAQMLDVAIRVKAIRKFAVSQMSSLLDSAHLVASSTQRNGICEVLYAAAWICGEFSEHLQGPQQTLEAMLRPKVTTLPGHIQAVYVQNVVKLYASILQQKEQAADTEAAQEVTQLLVERLPQFVQSADLEVQERASCILQLVKHVQKLQAKGVPVAEEVSALFAGELNPVAPKAQKKVPVPEGLDLDAWINEPPSDSESEDEKPKAIFHEEEPRHTRRRQPEEDEEELARRREARKQEQANNPFYIKSSPSPQKRYQDAPGVEHIPVVQIDLSVPLKVPGMPMSDQYVKLEEQRRHRQRLEKDKKRKKKEKGKRRHSSLPTESDEDIAPAQRVDIITEEMPENALPSDEDDKDPNDPYRALDIDLDKPLADSEKLPVQKHRNAEAVKSPEKEGVLGVEKKSKKPKKKEKKTKEREREKKDKKGEDLDFWLSTTPPPAAAPIPAPSTEELAASTITSPKDECEVLKGEEEDHVDHDQERKSSRHKKKKHRKEKEKEERPRDKKKAKKKQVAPLENGAAAEEEEEPIPPMSSYCLLAESPYIKVTYDIQASLQKDSQVTVSIILENQSSSFLKNMELNVLDSLNTKMTRPEGSSVHDGVPVPFQLPPGVSNEAQFVFTIQSIVMAQKLKGTLSFIAKDDEGATHEKLDFRLHFSCSSYLITTPCYSDAFAKLLESGDLSMNSIKVDGISMSFQNLLAKICFYHHFSVVERVDSCASMYSRSIQGHHVCLLVKKGESSVSVDGKCSDATLLSSLLEEMKTTLAQC
B3: Pdia6 (protein, UniProt Q922R8 20-440, looked up)
Protein disulfide-isomerase A6: LYSSSDDVIELTPSNFNREVIQSDGLWLVEFYAPWCGHCQRLTPEWKKAATALKDVVKVGAVNADKHQSLGGQYGVQGFPTIKIFGANKNKPEDYQGGRTGEAIVDAALSALRQLVKDRLGGRSGGYSSGKQGRGDSSSKKDVVELTDDTFDKNVLDSEDVWMVEFYAPWCGHCKNLEPEWAAAATEVKEQTKGKVKLAAVDATVNQVLASRYGIKGFPTIKIFQKGESPVDYDGGRTRSDIVSRALDLFSDNAPPPELLEIINEDIAKKTCEEHQLCVVAVLPHILDTGAAGRNSYLEVLLKLADKYKKKMWGWLWTEAGAQYELENALGIGGFGYPAMAAINARKMKFALLKGSFSEQGINEFLRELSFGRGSTAPVGGGSFPTITPREPWDGKDGELPVEDDIDLSDVELDDLEKDEL
B4: Dhx15 (protein, UniProt O35286 1-795, looked up)
ATP-dependent RNA helicase …: MSKRHRLDLGEDYPSGKKRAGTDGKDRERDRDREDRSKDRDRERDRGDREREREKEKEKELRASTNAMLISAGLPPLKASHSAHSTHSAHSTHSTHSAHSTHTGHTGHTSLPQCINPFTNLPHTPRYYDILKKRLQLPVWEYKDRFTDILVRHQSFVLVGETGSGKTTQIPQWCVEYMRSLPGPKRGVACTQPRRVAAMSVAQRVADEMDVMLGQEVGYSIRFEDCSSAKTILKYMTDGMLLREAMNDPLLERYGVIILDEAHERTLATDILMGVLKEVVRQRSDLKVIVMSATLDAGKFQIYFDNCPLLTIPGRTHPVEIFYTPEPERDYLEAAIRTVIQIHMCEEEEGDLLLFLTGQEEIDEACKRIKREVDDLGPEVGDIKIIPLYSTLPPQQQQRIFEPPPPKKQNGAIGRKVVVSTNIAETSLTIDGVVFVIDPGFAKQKVYNPRIRVESLLVTAISKASAQQRAGRAGRTRPGKCFRLYTEKAYKTEMQDNTYPEILRSNLGSVVLQLKKLGIDDLVHFDFMDPPAPETLMRALELLNYLAALNDDGDLTELGSMMAEFPLDPQLAKMVIASCDYNCSNEVLSITAMLSVPQCFVRPTEAKKAADEAKMRFAHIDGDHLTLLNVYHAFKQNHESVQWCYDNFINYRSLMSADNVRQQLSRIMDRFNLPRRSTDFTSRDYYINIRKALVTGYFMQVAHLERTGHYLTVKDNQVVQLHPSTVLDHKPEWVLYNEFVLTTKNYIRTCTDIKPEWLVKIAPQYYDMSNFPQCEAKRQLDRIIAKLQSKEYSQY
B5: Cd276 (protein, UniProt Q8VE98 29-316, looked up)
CD276 antigen: VEVQVSEDPVVALVDTDATLRCSFSPEPGFSLAQLNLIWQLTDTKQLVHSFTEGRDQGSAYSNRTALFPDLLVQGNASLRLQRVRVTDEGSYTCFVSIQDFDSAAVSLQVAAPYSKPSMTLEPNKDLRPGNMVTITCSSYQGYPEAEVFWKDGQGVPLTGNVTTSQMANERGLFDVHSVLRVVLGANGTYSCLVRNPVLQQDAHGSVTITGQPLTFPPEALWVTVGLSVCLVVLLVALAFVCWRKIKQSCEEENAGAEDQDGDGEGSKTALRPLKPSENKEDDGQEIA
B6: Lmna (protein, UniProt P48678 1-662, looked up)
Prelamin-A/C: METPSQRRATRSGAQASSTPLSPTRITRLQEKEDLQELNDRLAVYIDRVRSLETENAGLRLRITESEEVVSREVSGIKAAYEAELGDARKTLDSVAKERARLQLELSKVREEFKELKARNTKKEGDLLAAQARLKDLEALLNSKEAALSTALSEKRTLEGELHDLRGQVAKLEAALGEAKKQLQDEMLRRVDAENRLQTLKEELDFQKNIYSEELRETKRRHETRLVEIDNGKQREFESRLADALQELRAQHEDQVEQYKKELEKTYSAKLDNARQSAERNSNLVGAAHEELQQSRIRIDSLSAQLSQLQKQLAAKEAKLRDLEDSLARERDTSRRLLAEKEREMAEMRARMQQQLDEYQELLDIKLALDMEIHAYRKLLEGEEERLRLSPSPTSQRSRGRASSHSSQSQGGGSVTKKRKLESSESRSSFSQHARTSGRVAVEEVDEEGKFVRLRNKSNEDQSMGNWQIRRQNGDDPLMTYRFPPKFTLKAGQVVTIWASGAGATHSPPTDLVWKAQNTWGCGSSLRTALINSTGEEVAMRKLVRSLTMVEDNEDDDEDGEELLHHHRGSHCSGSGDPAEYNLRSRTVLCGTCGQPADKAAGGAGAQVGGSISSGSSASSVTVTRSFRSVGGSGGGSFGDNLVTRSYLLGNSSPRSQSSQNC
B7: Mvd (protein, UniProt P53602 2-400, looked up)
Diphosphomevalonate …: ASEKPLAAVTCTAPVNIAVIKYWGKRDEELVLPINSSLSVTLHQDQLKTTTTAVISKDFTEDRIWLNGREEDVGQPRLQACLREIRCLARKRRNSRDGDPLPSSLSCKVHVASVNNFPTAAGLASSAAGYACLAYTLARVYGVESDLSEVARRGSGSACRSLYGGFVEWQMGEQADGKDSIARQVAPESHWPELRVLILVVSAEKKLTGSTVGMRASVETSPLLRFRAESVVPARMAEMARCIRERDFPSFAQLTMKDSNQFHATCLDTFPPISYLNAISWRIIHLVHRFNAHHGDTKVAYTFDAGPNAVIFTLDDTVAEFVAAVWHGFPPGSNGDTFLKGLQVRPAPLSAELQAALAMEPTPGGVKYIIVTQVGPGPQILDDPCAHLLGPDGLPKPAA

Experiments:
DYT-TOR1A MEF EVs = assay: Quantitative LC-MS/MS proteomics of EVs from drug-treated DYT-TOR1A MEF cultures (ritonavir, salubrinal); assay type: cell-based, mouse; set-up: key to RTV Corrective Direction / RTV Corrective Direction, Grwd1 / RTV Corrective Direction, Srrm2 / RTV Corrective Direction, Rbm17 / RTV Corrective Direction, Dcaf8 / RTV Corrective Direction, Edil3 / RTV Corrective Direction, Timp3 / RTV Corrective Direction, Heatr3 / RTV Corrective Direction, Brd4 / RTV Corrective Direction, P3h4 / RTV Corrective Direction, Pacsin3 / RTV Corrective Direction, Naa50 / RTV Corrective Direction, Lpar6 / RTV Corrective Direction, Ndrg1 / RTV Corrective Direction, Kntc1 / RTV Corrective Direction, Cdk11b / RTV Corrective Direction, Sumo1 / RTV Corrective Direction, Lsm4 / RTV Corrective Direction, Hmga2 / RTV Corrective Direction, Cstf1 / RTV Corrective Direction, Tes / RTV Corrective Direction, Sbno1 / RTV Corrective Direction, Unc119b / RTV Corrective Direction, Cfdp1 / RTV Corrective Direction, Sec61b: YES = protein abundance effect opposite to DYT/WT; conditions: EV protein abundance; for RTV Corrective Direction: DYT + RTV (ritonavir) vs DYT, direction compared with DYT/WT; for DYT + RTV/DYT Cohen's d: ritonavir (RTV)-treated DYT vs DYT
WT MEF EVs = assay: Quantitative LC-MS/MS proteomics of EVs from ISRIB-treated WT MEF cultures; assay type: cell-based, mouse; set-up: key to ISRIB and DYT Parallel Direction / ISRIB and DYT Parallel Direction, Ctdsp1 / ISRIB and DYT Parallel Direction, Pcdh19 / ISRIB and DYT Parallel Direction, Tspan7 / ISRIB and DYT Parallel Direction, Myo1e / ISRIB and DYT Parallel Direction, Plpp3 / ISRIB and DYT Parallel Direction, Sh3bp4 / ISRIB and DYT Parallel Direction, Dnajc7 / ISRIB and DYT Parallel Direction, Drg1 / ISRIB and DYT Parallel Direction, Maea: YES = protein abundance effect similar to DYT/WT; conditions: EV protein abundance; for WT + ISRIB/WT Cohen's d: ISRIB-treated WT vs WT; for ISRIB and DYT Parallel Direction: WT + ISRIB vs WT, direction compared with DYT/WT

Row | Molecule | RTV Corrective Direction (DYT-TOR1A MEF EVs) | DYT + RTV/DYT Cohen's d (DYT-TOR1A MEF EVs) | WT + ISRIB/WT Cohen's d (WT MEF EVs) | ISRIB and DYT Parallel Direction (WT MEF EVs)
1 | B1 | YES | 3.33 | −1.03 | YES
2 | B2 | YES | 3.27 | −0.19 | YES
3 | B3 | YES | 3.27 | −1.84 | YES
4 | B4 | YES | 4.59 | −1.19 | YES
5 | B5 | YES | 1.75 | −2.07 | YES
6 | B6 | YES | 3.97 | −0.19 | YES
7 | B7 | YES | 4.38 | −0.34 | YES
